According to US20060263802A1 (CRUCELL HOLLAND B V, published 2006):

Assays:
Assay in all cases: PEPSCAN ELISA, looped 15-mer, 10 ug/ml
[1] = target: looped peptide … (rabies virus strain ERA)
[2] = target: looped peptide … (rabies virus strain ERA); remark: listed apart in the source
[3] = target: looped peptide … (rabies virus strain ERA); remark: listed apart in the source
[4] = target: looped peptide … (rabies virus strain ERA); remark: listed apart in the source
[5] = target: looped peptide … (rabies virus strain ERA); remark: listed apart in the source
[6] = target: looped peptide … (rabies virus strain ERA); remark: listed apart in the source
[7] = target: looped peptide … (rabies virus strain ERA); remark: listed apart in the source
[8] = target: looped peptide … (rabies virus strain ERA); remark: listed apart in the source
[9] = target: looped peptide … (rabies virus strain ERA); remark: listed apart in the source
[10] = target: looped peptide … (rabies virus strain ERA); remark: listed apart in the source
[11] = target: looped peptide … (rabies virus strain ERA); remark: listed apart in the source
[12] = target: looped peptide … (rabies virus strain ERA); remark: listed apart in the source
[13] = target: looped peptide … (rabies virus strain ERA); remark: listed apart in the source
[14] = target: looped peptide … (rabies virus strain ERA); remark: listed apart in the source
[15] = target: looped peptide … (rabies virus strain ERA); remark: listed apart in the source
[16] = target: looped peptide … (rabies virus strain ERA); remark: listed apart in the source
[17] = target: looped peptide … (rabies virus strain ERA); remark: listed apart in the source
[18] = target: looped peptide … (rabies virus strain ERA); remark: listed apart in the source
[19] = target: looped peptide … (rabies virus strain ERA); remark: listed apart in the source
[20] = target: looped peptide … (rabies virus strain ERA); remark: listed apart in the source
[21] = target: looped peptide … (rabies virus strain ERA); remark: listed apart in the source
[22] = target: looped peptide … (rabies virus strain ERA); remark: listed apart in the source
[23] = target: looped peptide … (rabies virus strain ERA); remark: listed apart in the source
[24] = target: looped peptide … (rabies virus strain ERA); remark: listed apart in the source
[25] = target: looped peptide … (rabies virus strain ERA); remark: listed apart in the source
[26] = target: looped peptide … (rabies virus strain ERA); remark: listed apart in the source
[27] = target: looped peptide … (rabies virus strain ERA); remark: listed apart in the source
[28] = target: looped peptide … (rabies virus strain ERA); remark: listed apart in the source
[29] = target: looped peptide … (rabies virus strain ERA); remark: listed apart in the source
[30] = target: looped peptide … (rabies virus strain ERA); remark: listed apart in the source
[31] = target: looped peptide … (rabies virus strain ERA); remark: listed apart in the source
[32] = target: looped peptide … (rabies virus strain ERA); remark: listed apart in the source
[33] = target: looped peptide … (rabies virus strain ERA); remark: listed apart in the source
[34] = target: looped peptide … (rabies virus strain ERA); remark: listed apart in the source
[35] = target: looped peptide … (rabies virus strain ERA); remark: listed apart in the source
[36] = target: looped peptide … (rabies virus strain ERA); remark: listed apart in the source
[37] = target: looped peptide … (rabies virus strain ERA); remark: listed apart in the source
[38] = target: looped peptide … (rabies virus strain ERA); remark: listed apart in the source
[39] = target: looped peptide … (rabies virus strain ERA); remark: listed apart in the source
[40] = target: looped peptide … (rabies virus strain ERA); remark: listed apart in the source
[41] = target: looped peptide … (rabies virus strain ERA); remark: listed apart in the source
[42] = target: looped peptide … (rabies virus strain ERA); remark: listed apart in the source
[43] = target: looped peptide … (rabies virus strain ERA); remark: listed apart in the source
[44] = target: looped peptide … (rabies virus strain ERA); remark: listed apart in the source
[45] = target: looped peptide … (rabies virus strain ERA); remark: listed apart in the source
[46] = target: looped peptide … (rabies virus strain ERA); remark: listed apart in the source
[47] = target: looped peptide … (rabies virus strain ERA); remark: listed apart in the source
[48] = target: looped peptide … (rabies virus strain ERA); remark: listed apart in the source
[49] = target: looped peptide … (rabies virus strain ERA); remark: listed apart in the source
[50] = target: looped peptide … (rabies virus strain ERA); remark: listed apart in the source
[51] = target: looped peptide … (rabies virus strain ERA); remark: listed apart in the source
[52] = target: looped peptide … (rabies virus strain ERA); remark: listed apart in the source
[53] = target: looped peptide … (rabies virus strain ERA); remark: listed apart in the source
[54] = target: looped peptide … (rabies virus strain ERA); remark: listed apart in the source
[55] = target: looped peptide … (rabies virus strain ERA); remark: listed apart in the source
[56] = target: looped peptide … (rabies virus strain ERA); remark: listed apart in the source
[57] = target: looped peptide … (rabies virus strain ERA); remark: listed apart in the source
[58] = target: looped peptide … (rabies virus strain ERA); remark: listed apart in the source
[59] = target: looped peptide … (rabies virus strain ERA); remark: listed apart in the source
[60] = target: looped peptide … (rabies virus strain ERA); remark: listed apart in the source
[61] = target: looped peptide … (rabies virus strain ERA); remark: listed apart in the source
[62] = target: looped peptide … (rabies virus strain ERA); remark: listed apart in the source
[63] = target: looped peptide … (rabies virus strain ERA); remark: listed apart in the source
[64] = target: looped peptide … (rabies virus strain ERA); remark: listed apart in the source
[65] = target: looped peptide … (rabies virus strain ERA); remark: listed apart in the source
[66] = target: looped peptide … (rabies virus strain ERA); remark: listed apart in the source
[67] = target: looped peptide … (rabies virus strain ERA); remark: listed apart in the source
[68] = target: looped peptide … (rabies virus strain ERA); remark: listed apart in the source

B1: human monoclonal antibody CRJB (antibody, V domains shown)
VH: QITLKETGPTLVKPTQTLTLTCTFSGFSLSTSGVGVGWIRQPPGKALEWVTLIYWDDDKRYSPSLENRVTIRKDTSKNQVALTMTNMDPLDTGTYYCAHRQHISSFPWFDSWGQGTLVTVSS
VL: SYVLTQPPSVSVAPGKTARINCGGNNIEYRSVHWYQQKSGQAPVAVIYDNSDRPSGIPERFSGSKSGNTATLTISRVEAGDEADYYCQVWDISSDVVFGGGTKLTVLG
For B1, the OD value [1] was 80, the OD value [2] was 94 and the OD value [3] was 27. For the same binder, the OD value [4] was 94, the OD value [5] was 58 and the OD value [6] was 96. It also gave an OD value [7] of 78, an OD value [8] of 74 and an OD value [9] of 27. For the same binder, the OD value [10] was 25, the OD value [11] was 76 and the OD value [12] was 55. For the same binder, the OD value [13] was 77, the OD value [14] was 123 and the OD value [15] was 96. It also gave an OD value [16] of 23, an OD value [17] of 106 and an OD value [18] of 79. It also gave an OD value [19] of 96, an OD value [20] of 73 and an OD value [21] of 72. It also gave an OD value [22] of 111, an OD value [23] of 76 and an OD value [24] of 75. It also gave an OD value [25] of 74, an OD value [26] of 83 and an OD value [27] of 33. For the same binder, the OD value [28] was 66, the OD value [29] was 85 and the OD value [30] was 66. The OD value [31] was 90, the OD value [32] was 112 and the OD value [33] was 61. It also gave an OD value [34] of 8, an OD value [35] of 89 and an OD value [36] of 104. For the same binder, the OD value [37] was 99, the OD value [38] was 97 and the OD value [39] was 104. For the same binder, the OD value [40] was 93, the OD value [41] was 97 and the OD value [42] was 34. The OD value [43] was 74, the OD value [44] was 100 and the OD value [45] was 93. For the same binder, the OD value [46] was 54, the OD value [47] was 65 and the OD value [48] was 127. For the same binder, the OD value [49] was 90, the OD value [50] was 71 and the OD value [51] was 88. It also gave an OD value [52] of 93, an OD value [53] of 72 and an OD value [54] of 85. For the same binder, the OD value [55] was 76, the OD value [56] was 79 and the OD value [57] was 89. The OD value [58] was 86, the OD value [59] was 90 and the OD value [60] was 82. The OD value [61] was 48, the OD value [62] was 82 and the OD value [63] was 56. It also gave an OD value [64] of 72, an OD value [65] of 78 and an OD value [66] of 97. For the same binder, the OD value [67] was 94 and the OD value [68] was 90.
